Columns and labels:
[1] = biological target: T1, human CD200R1 recombinant protein (construct not stated) (human, UniProt Q8TD46 27-266, limits assumed); assay: ELISA on human CD200R1, normalized absorbance at 450 nm, 0.0192-300 nM; panel 'Human CD200R1'
T1 sequence (looked up): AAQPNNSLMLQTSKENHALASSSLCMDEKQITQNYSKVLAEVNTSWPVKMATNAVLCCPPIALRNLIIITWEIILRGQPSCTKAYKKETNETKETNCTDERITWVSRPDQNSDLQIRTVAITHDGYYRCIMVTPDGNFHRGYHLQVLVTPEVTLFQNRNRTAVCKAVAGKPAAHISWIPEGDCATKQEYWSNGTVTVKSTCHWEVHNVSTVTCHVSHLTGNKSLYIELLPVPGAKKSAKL

[2] = biological target: T2, monkey CD200RLa (Sino Biological, 11576-C02H) recombinant protein (monkey (cyno), UniProt A0A2K5W6R0 30-246); assay: ELISA, plate-bound monkey CD200RLa (2 ug/mL), antibody 0.0192-300 nM, O.D 450 nm; panel 'recombinant cynomolgus CD200RLa/Fc'
T2 construct: Bought; construct not described; also called cyno CD200RLa
T2 sequence: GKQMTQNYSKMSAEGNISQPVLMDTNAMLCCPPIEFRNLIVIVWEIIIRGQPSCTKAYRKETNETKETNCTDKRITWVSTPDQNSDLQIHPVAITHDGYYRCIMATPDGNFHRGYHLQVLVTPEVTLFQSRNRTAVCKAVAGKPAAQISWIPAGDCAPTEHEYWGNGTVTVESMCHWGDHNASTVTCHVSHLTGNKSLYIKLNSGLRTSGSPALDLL
Experimental: 96-well plates were coated with human CD200RLa (Sino Biological, 11620-H08H) and monkey CD200RLa (Sino Biological, 11576-C02H) recombinant proteins at a concentration of 2 μg/mL at 4° C. for 16 hours, and blocked with 3% skim milk for 1 hour. […] Color was developed with a TMB substrate solution (Thermo Scientific, 34029, 1-Step™ Ultra TMB-ELISA Substrate Solution). The color reaction was stopped with stop solution (Invitrogen, SS04, ELISA Stop Solution).

[3] = biological target: T3, human CD200R1 expressed on cells (Jurkat-CD200R1, U937-CD200R1, HH cells) (human, UniProt Q8TD46 25-348); assay: flow cytometry on Jurkat-CD200R1 and HH cells, 500 nM antibody in IgG1 form
T3 construct: whole, on cells; also called HH (CRL-2105); cell surface-expressed CD200R1
T3 sequence (looked up): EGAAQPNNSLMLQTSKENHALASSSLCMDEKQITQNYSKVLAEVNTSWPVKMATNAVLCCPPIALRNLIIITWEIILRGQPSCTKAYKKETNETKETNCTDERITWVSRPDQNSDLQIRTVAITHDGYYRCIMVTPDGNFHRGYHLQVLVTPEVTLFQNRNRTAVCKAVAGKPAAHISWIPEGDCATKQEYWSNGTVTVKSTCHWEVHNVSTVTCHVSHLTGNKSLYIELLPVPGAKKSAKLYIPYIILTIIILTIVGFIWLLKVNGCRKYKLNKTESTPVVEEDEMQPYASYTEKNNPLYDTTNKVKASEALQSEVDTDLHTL
Outline: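 Cells at 1×10⁵ per well incubated with antibody 1 h at 4 °C, then Alexa-647 anti-human IgG (H+L) secondary for 30 min at 4 °C. After two washes, binding read by flow cytometry.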

[4] = biological target: T3, human CD200R1 expressed on cells …; assay: flow cytometry, HH cells
Experimental: Two additional wells were treated with 10 μl of mouse IgG1K (BD, #555751) and 5 μl of commercial CD200R1 antibody (Biolegend, #329308) to determine CD200R1 expression on the cell line surface for cell quality control.
The antibodies were serially diluted 10-fold from a maximum concentration of 100 nM to 10 nM, 1 nM, […], and were added to the pre-seeded cells. After reaction for 1 hour at 4° C., the cells were treated with Alexa-647 goat anti-human IgG (H+L) cross-adsorbed secondary antibody (Invitrogen, #A21445) and incubated for an additional 30 minutes at 4° C. After washing twice with FACS buffer, flow cytometry was performed using a Novocyte Flow cytometer (Agilent). Using GraphPad Prism software, the EC₅₀ was determined using a nonlinear graph model of log (agonist) vs. response-variable slope, as shown in Table 32.

Hybrid CD200R1 MH = biological target: T4, Hybrid CD200R1 MH (mouse;human, UniProt Q9ES57;Q8TD46); assay: ELISA, plate-bound MH hybrid (1 ug/mL), antibody 0.0192-300 nM, O.D 450 nm; panel 'P001 MH domain-2)'
T4 construct: single domain; mouse D1 over human D2; also called MH hybrid domain; P001 MH domain
T4 sequence (hybrid extracellular part, looked up): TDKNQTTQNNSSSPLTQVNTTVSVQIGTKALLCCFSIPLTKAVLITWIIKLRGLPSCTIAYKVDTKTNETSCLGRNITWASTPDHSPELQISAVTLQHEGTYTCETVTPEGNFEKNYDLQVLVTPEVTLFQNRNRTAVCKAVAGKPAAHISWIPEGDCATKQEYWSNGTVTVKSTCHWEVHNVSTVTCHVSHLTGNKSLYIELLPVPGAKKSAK
Experimental: Recombinant proteins were produced from the extracellular Ig-like V-type domain and Ig-like C2-type domain of human CD200R1, each designed as human-mouse (HM hybrid domain) and mouse-human (MH hybrid domain) recombinant proteins. A 96-well plate was coated at a concentration of 1 μg/mL with each protein at 4° C. for 16 hours and blocked with 3% skim milk. […] After color development with TMB substrate solution (Thermo Scientific, 34029, 1-Step™ Ultra TMB-ELISA Substrate Solution), the color reaction was stopped with a stop solution (Invitrogen, SS04, ELISA Stop Solution), and the absorbance was measured at an O.D. of 450 nm.

B1: P001009 (IgG) (antibody, V domains shown)
VH: EVQLLESGGGLVQPGGSLRLSCAASGFTFSSYDMSWVRQAPGKGLEWVSWISHGGGSIYYADSVKGRFTISRDNSKNTLYLQMNSLRAEDTAVYYCARDAPAYSAPLFDYWGQGTLVTVSS
VL: QSVLTQPPSASGTPGQRVTISCSGSSSNIGNNAVNWYQQLPGTAPKLLIYYDSNRPSGVPDRFSGSKSGTSASLAISGLRSEDEADYYCAAWDDSLSGYVFGGGTKLTVL
notes: also called P001009 WT; P001009 wt
EC50 (read off the curve) [1]: ~2 nM
binding result [2]: no binding (tested: 300 nM)
MFI normalized to P001017 (chimeric OX108), % [3]: > 50%
EC50 [4]: 0.19 nM
binding result (Hybrid CD200R1 MH): no binding (tested: 300 nM)
